Measured values: IntAct's records for PubMed 28164238

B1: T-box transcription factor TBX5 (Mus musculus), P70326 (parent)
chain: MADTDEGFGLARTPLEPDSKDRSCDSKPESALGAPSKSPSSPQAAFTQQGMEGIKVFLHERELWLKFHEVGTEMIITKAGRRMFPSYKVKVTGLNPKTKYILLMDIVPADDHRYKFADNKWSVTGKAEPAMPGRLYVHPDSPATGAHWMRQLVSFQKLKLTNNHLDPFGHIILNSMHKYQPRLHIVKADENNGFGSKNTAFCTHVFPETAFIAVTSYQNHKITQLKIENNPFAKGFRGSDDLELHRMSRMQSKEYPVVPRSTVRHKVTSNHSPFSSETRALSTSSNLGSQYQCENGVSGPSQDLLPPPNPYPLAQEHSQIYHCTKRKDEECSSTEHPYKKPYMETSPSEEDTFYRSGYPQQQGLSTSYRTESAQRQACMYASSAPPSEPVPSLEDISCNTWPSMPSYSSCTVTTVQPMDRLPYQHFSAHFTSGPLVPRLAGMANHGSPQLGEGMFQHQTSVAHQPVVRQCGPQTGLQSPGGLQPPEFLYTHGVPRTLSPHQYHSVHGVGMVPEWSENS

Tests used:
[1] = variants of: B1; conditions: with klf13_mouse Klf13, Q9JJZ6
[2] = variants of: B1; conditions: with nkx25_mouse Nkx2-5, P42582
Chain of nkx25_mouse Nkx2-5, P42582 (P42582 whole entry): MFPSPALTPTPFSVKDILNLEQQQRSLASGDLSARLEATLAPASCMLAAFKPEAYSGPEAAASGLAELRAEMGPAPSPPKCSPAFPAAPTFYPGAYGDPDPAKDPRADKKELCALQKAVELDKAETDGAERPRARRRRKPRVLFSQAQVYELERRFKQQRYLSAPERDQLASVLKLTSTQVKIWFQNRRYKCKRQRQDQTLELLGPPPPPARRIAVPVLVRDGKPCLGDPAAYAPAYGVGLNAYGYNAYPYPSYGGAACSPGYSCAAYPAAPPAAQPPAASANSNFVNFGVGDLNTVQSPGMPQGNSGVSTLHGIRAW

Chain of klf13_mouse Klf13, Q9JJZ6 (Q9JJZ6 whole entry): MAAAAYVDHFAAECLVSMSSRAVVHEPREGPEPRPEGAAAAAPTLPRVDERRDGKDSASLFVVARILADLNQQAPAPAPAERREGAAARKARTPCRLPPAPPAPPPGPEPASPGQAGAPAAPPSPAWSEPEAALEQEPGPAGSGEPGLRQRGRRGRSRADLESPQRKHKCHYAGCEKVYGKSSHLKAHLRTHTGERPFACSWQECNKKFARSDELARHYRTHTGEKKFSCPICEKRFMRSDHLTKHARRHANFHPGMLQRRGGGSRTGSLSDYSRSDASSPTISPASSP

Variant	effect of a mutation on the interaction [1]	effect of a mutation on the interaction [2]
G80Q	decreasing interaction strength	decreasing interaction strength
P96L	with no effect	decreasing interaction strength
A79V	decreasing interaction strength	decreasing interaction strength
Y100C	decreasing interaction strength	decreasing interaction strength
L102P	decreasing interaction strength	decreasing interaction strength
I54T	with no effect	with no effect

Continued, values first:

effect of a mutation on the interaction [1]	effect of a mutation on the interaction [2]	Variant
decreasing interaction strength	decreasing interaction strength	T223M
decreasing interaction strength	decreasing interaction strength	T144I
decreasing interaction strength	decreasing interaction strength	G169R
with no effect	decreasing interaction strength	G195A
with no effect	with no effect	R134C
decreasing interaction strength	decreasing interaction strength	R237Q
decreasing interaction strength	with no effect	W121G
